T1: recombinant DLL3 protein (purchased from ACRO, DL3-H5255) (human, UniProt Q9NYJ7 27-479)
T1 construct: Bought; also called human DLL3 protein; hDLL3
T1 sequence (looked up): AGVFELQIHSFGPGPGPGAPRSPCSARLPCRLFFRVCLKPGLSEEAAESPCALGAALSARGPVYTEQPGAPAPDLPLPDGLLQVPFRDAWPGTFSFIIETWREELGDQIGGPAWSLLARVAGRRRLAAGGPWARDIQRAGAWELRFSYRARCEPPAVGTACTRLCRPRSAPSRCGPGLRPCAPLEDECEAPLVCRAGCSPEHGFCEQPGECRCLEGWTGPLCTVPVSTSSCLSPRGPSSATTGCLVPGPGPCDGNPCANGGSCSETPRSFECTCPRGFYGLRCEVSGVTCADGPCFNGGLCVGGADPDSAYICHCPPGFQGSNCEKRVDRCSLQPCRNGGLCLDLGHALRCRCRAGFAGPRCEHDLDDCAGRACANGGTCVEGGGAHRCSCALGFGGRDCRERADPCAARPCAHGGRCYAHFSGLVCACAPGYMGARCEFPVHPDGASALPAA

B1: ch10B1 (antibody, human IgG1, kappa, V domains shown)
VH: DVKLVESGGGLVKPGGSLKLSCAASGFTFSNYTISWVRQTPEKRLEWVATFSSGGSYTYYSDSVKGRFTISRDNAKNTLYLQMSSLKSEDTAMYYCSRDRRSDGYYHLYAMDYWGQGTSVTVSS
VL: DIQMTQTTSSLSASLGDRVTISCRASQDISHYLNWYQQKPDGTVKLLIYYTSRLHSGVPSRFSGSGSGTAYSLTISNLEQEDIATYFCQQGYTLPLTFGAGTKLELKR
notes: Chimeric: murine variable regions on human IgG1 heavy and kappa light constant regions; also called chimeric antibody 10B1
B2: ch23G2 (antibody, human IgG1, kappa, V domains shown)
VH: QVQLQQSGPELVRPGVSVKISCKGSGYTFTDYAIHWVKQSRAKSPEWIGIVSTDSGKTSFNQKFKGKATMTVDKSSTTAYMELVRLTSEDSAIYYCARNPYYDYDGYAMDYWGQGTSVTVSS
VL: DIQMTQSSSYLSVSLGGRVTIICKASDHINNWLAWYQQKPGNAPRLIISGATSLETGVPSRFSGSGSGKDYTLSITSLQTEDVATYYCQQYWSIPYTFGGGTKLEIKR
notes: Chimeric: murine variable regions on human IgG1 heavy and kappa light constant regions; also called chimeric antibody 23G2
B3: ch6A2 (antibody, human IgG1, kappa, V domains shown)
VH: EVQLQQSGPELVKPGASVKISCKASGYTFTDYNMNWVKQSQGKSLEWIGYIYPYNGGTGYNQKFKTKATLTVDNSSSTAYMEFRSLTSEDSAVYYCARSDPYYTMDYWGQGTSVTVSS
VL: IIVMTQTPKFLLVSAGDRVTISCKASQSVNNDVAWYQQKPGQSPKLLIYFTSNRFTGVPDRFTGSGYGTDFTFTISSVQAEDLAVYFCQQDHNSPYTFGGGTKLEIKR
notes: Chimeric: murine variable regions on human IgG1 heavy and kappa light constant regions; also called chimeric antibody 6A2
B4: ch33F11 (antibody, human IgG1, kappa, V domains shown)
VH: EVQLQQSGPELVKPGASVKISCKTSGYTFTENTMHWVKQSHGESLEWIGGINPRNGVTSYNQKFKGKATLTVDKSSSTAYMELRSLTSEDSAVYYCTNTYYRDYFDYWGQGTTLTVSS
VL: NIVMTQSPKSMSMSVGERVTLSCKASENVGTYVSWYQQKPDQSPKLLIYGASNRYTGVPDRFTGSGSPTDFTLTISRMQAEDLAHYYCGQTYTYPLTFGAGTKLELKR
notes: Chimeric: murine variable regions on human IgG1 heavy and kappa light constant regions; also called chimeric antibody 33F11
B5: ch1A5 (antibody, human IgG1, kappa, V domains shown)
VH: EVQLQQSGPELVKPGASVKISCKTSGYTFTESAMHWVKQSHGKSLEWIGGINPNNGGISYSQKFKGKATLTVDKSSSTAYMELRSLTSEDSAVYYCGSSYYRDYFDYWGQGTTLTVSS
VL: NIVMTQSPESMSMSVGERVTLSCKASENVGTYVSWYQQKPDQSPKLLIYGASNRYTGVPDRFTGSGSATHFTLTISSVQAEDLADYHCGQSYSYPLTFGAGTKLELKR
notes: Chimeric: murine variable regions on human IgG1 heavy and kappa light constant regions, expressed in 293F cells; also called chimeric antibody 1A5
B6: ch13C2 (antibody, human IgG1, kappa, V domains shown)
VH: EVKLVESGGGLVKPGGSLKLSCAASGFAFSSYDMSWVRQTPEKRLEWVATISSGGSYTYYPDSVKGRFTISRDNGRNTLYLQMSSLRSEDTALYYCASPLLGLRFAYWGQGTLVTVSA
VL: QAVVTQESALTTSPGETVTLTCRSSTGAVTTINYANWVQEKPDHLFTGLIGGTNNRAPGVPARFSGSLIGDKAALTITGAQTEDEAIYFCALYYSNHWVFGGGTKLTVLR
notes: Chimeric: murine variable regions on human IgG1 heavy and kappa light constant regions; also called chimeric antibody 13C2
B7: ch32E8 (antibody, human IgG1, kappa, V domains shown)
VH: QVTLKESGPGILQPSQTLSLTCSFSGFSLSTSGMGVGWIRQPSGKGLEWLALIWWDDVKRYHPALKSRLTISKDTSSSQVFLKIASVDTADTATYYCARIAEVTGQVGLHYAMDYWGQGTSVTVSS
VL: QTVLTQSPAIMSASLGERVTMTCTASSSVNSSSLHWYQQKPGSSPKLWIYTTSNLASGVPARFSGSGSGTSYSLTISSMEAEDAATYYCHQFHRSPFTFGSGTKLEIKR
notes: Chimeric: murine variable regions on human IgG1 heavy and kappa light constant regions; also called chimeric antibody 32E8
B8: ch19C7 (antibody, human IgG1, kappa, V domains shown)
VH: EVQLQQSGPELVRPGASVRMSCKASGYTFTYYVMHWVKQKPGLGLEWIGYINPYNDGTEYNEKFKGKATLTSDKSSSTAFMELSSLTSEDSAVYYCARWLLREYAMDYWGQGTSVTVSS
VL: DIQMTQSPASLSASVGETVTITCRASDNIHNYLAWYQQKQGKSPQLLVYNAKTLADGVPSRFSGSGSGTQYSLKINSLQPEDFGSYYCQHFWSTPWTFGGGTKLEIKR
notes: Chimeric: murine variable regions on human IgG1 heavy and kappa light constant regions; also called chimeric antibody 19C7
B9: ch26D9 (antibody, human IgG1, kappa, V domains shown)
VH: EVQLQQSGPELVKPGASVKMSCKASGYTFTTYVMHWVKQKPGQGLEWIGYINPYNDDTNYNEKFKGKATLTSDKSSSTAYMELSSLTSEDSAVYYCARWGLTGTGDYYAMDYWGQGTSVTVSS
VL: DIQMTQSPASLSASVGETVTITCRASGNVHNYLAWYQQKQGRSPQVLVYNAKTLADGVPSRFSGSGSGTQYSLKINSLLPEDFGSYYCQHFWTTPWTFGGGTTLEIKR
notes: Chimeric: murine variable regions on human IgG1 heavy and kappa light constant regions; also called chimeric antibody 26D9
B10: ch15G2 (antibody, human IgG1, kappa, V domains shown)
VH: EVQLQQSGPELEKPGASVRISCKASGYSFTDYNMHWVKQSNGKSLEWIGNIDPYYGGTNYNQKFEGKATLTVDKSSSTAYMQLKSLTSEDSAVYYCARGGNNYGDYWGQGTTLTVSS
VL: DIQMTQSPASLAASVGETVTITCRASENIYYSLAWYQQKQGKSPQLLIFNANSLEDGVPSRFSGSGSGTQYSMKINSMQPEDTATYFCKQAYDVPWTFGGGTKLEIKR
notes: Chimeric: murine variable regions on human IgG1 heavy and kappa light constant regions; also called chimeric antibody 15G2

The binders below were run against T2, human DLL4 (purchased from Acro, DL4-H5227) (human, UniProt Q9NR61 27-524) (assay: ELISA, plate-coated protein 1 µg/ml).
T2 construct: Bought; also called hDLL4
T2 sequence (Q9NR61 27-524 limits assumed): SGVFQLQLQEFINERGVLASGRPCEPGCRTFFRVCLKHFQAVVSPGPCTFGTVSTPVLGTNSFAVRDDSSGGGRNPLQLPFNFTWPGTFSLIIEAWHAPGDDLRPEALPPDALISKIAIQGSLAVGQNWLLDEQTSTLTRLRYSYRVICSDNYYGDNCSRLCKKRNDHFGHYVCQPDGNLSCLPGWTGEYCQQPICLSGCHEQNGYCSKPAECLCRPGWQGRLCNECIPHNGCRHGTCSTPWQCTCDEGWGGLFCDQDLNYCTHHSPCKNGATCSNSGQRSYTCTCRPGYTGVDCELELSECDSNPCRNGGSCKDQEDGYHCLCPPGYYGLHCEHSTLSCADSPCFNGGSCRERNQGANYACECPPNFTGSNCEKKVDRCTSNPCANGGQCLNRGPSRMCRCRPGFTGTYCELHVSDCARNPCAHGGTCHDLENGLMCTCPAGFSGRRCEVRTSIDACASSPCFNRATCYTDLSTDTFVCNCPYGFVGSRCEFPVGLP
Protocol: The chimeric antibodies obtained in Example 6 were evaluated for their binding abilities to human DLL1 (purchased from Acro, DL1-H52H8) and DLL4 (purchased from Acro, DL4-H5227) proteins using the ELISA method. The ELISA detection method involved diluting DLL1 and DLL4 proteins with PBS to a final concentration of 1 μg/ml and coating them onto 384-well ELISA plates (purchased from Corning, 3700) at 4° C. overnight. The next day, the supernatant in the plate wells was discarded, and the wells were blocked with 80 μl of 3% milk (dissolved in PBS) for 2 hours, followed by washing three times with 80 μl of PBST (0.1% Tween20). […] After washing with 80 μl of PBST (0.1% Tween20) for five times, 25 μl of HRP-labeled goat anti-human secondary antibody (Jackson, 1:10000) was added to each well and incubated at room temperature for 1 hour, discard the supernatant, and the wells were then washed seven times with 80 μl of PBST (0.1% Tween20). After adding 25 μl of TMB chromogen solution for 10 minutes, the reaction was terminated with 2M HCl, and the absorbance value at 450 nm was measured with a Microplate reader (purchased from Biotek, Elx808). […] To assess the cross-reactivity of the antibodies with mouse and monkey DLL3, mouse DLL3-expressing plasmid pCMV3-mDLL3 (purchased from Beijing Yiqiao, MG58052-UT) and monkey DLL3-expressing plasmid pCMV3-rheDLL3 (purchased from Beijing Yiqiao, CG90919-UT) were used to construct overexpressing cell lines. The construction of overexpressing cells was as described in Examples 2-3. The binding abilities of the chimeric antibodies to these cells were determined by flow cytometry to assess the cross-reactivity of the antibodies with different species.
B1: no binding (tested: up to 20 µg/ml).
B2: no binding (tested: up to 20 µg/ml).

What follows are binders tested against T1, recombinant DLL3 protein (purchased …) (assay: ELISA, plate-coated human DLL3 protein 1 µg/ml).
Source text: Six 6-week-old SPF grade female Balb/C mice (purchased from Shanghai Jihui Laboratory Animal Care Co., Ltd.) were selected and randomly divided into two groups, A and B. They were immunized with recombinant DLL3 protein (purchased from ACRO, DL3-H5255) at two-week intervals. Freund's complete adjuvant was used for the first immunization and Freund's incomplete adjuvant was used for subsequent immunizations. On days 35 and 49, blood samples were collected from the mice via orbital bleeding, and the immune serum titers of the mice were detected using conventional methods of ELISA and Flow Cytometry (FACS). ELISA detection method: DLL3 protein was diluted with PBS to a concentration of 1 μg/ml. 100 μl/well was added to a 96-well ELISA plate and incubated overnight at 4° C. The next day, the supernatant was discarded, and each well was blocked with 200 μl of 2% milk in PBS for 2 hours. After discarding the blocking solution, the wells were washed 3 times with 200 μl of PBST (0.1% Tween20). The serum to be detected was pre-diluted 100 times as the starting concentration, followed by a 3-fold gradient dilution across 11 concentrations, with 100 μl added to each well of the ELISA plate. After incubating at room temperature for 1 hour, the supernatant was discarded and the wells were washed 5 times with 200 μl of PBST (0.1% Tween20). Then, 100 μl of HRP-labeled goat anti-mouse secondary antibody (Jackson, 1:10000) was added and incubated at room temperature for 1 hour. After discarding the supernatant, the wells were washed 7 times with 200 μl of PBST (0.1% Tween20). 100 μl of TMB chromogen solution was added to each well for 10 minutes. The reaction was terminated with 2M HCl, and absorbance value at 450 nm was read with a Microplate Reader (purchased from Biotek, Elx808).
For the hybridoma clones with good binding and internalization activities identified in Example 5, the heavy chain variable region sequences were synthesized and cloned into the pFUSEss-CHIg-hG1 vector (purchased from InvivoGen, catalog number pfusess-hchgl) comprising the amino acid sequence of the human antibody IgG1 heavy chain constant region by homologous recombination.
In the case of B3, the EC50 is reported as 13.1 ng/mL.
For B1, the EC50 was 16.8 ng/mL.
B4 gave an EC50 of 9.55 ng/mL.
With B5 the EC50 was 9.21 ng/mL.
B2 gave an EC50 of 9.41 ng/mL.
For B6, the EC50 was 395 ng/mL.
B7 was tested, and the EC50 was 8.83 ng/mL.
B8 gave an EC50 of 8.66 ng/mL.
Work on B9 yielded an EC50 of 11.8 ng/mL.
B10 showed an EC50 of 8.53 ng/mL.

— patent US20250114467A1 (SHANGHAI FUDAN ZHANGJIANG BIO PHARMACEUTICAL, published 2025)
